Source: paper PMC8850972, “Unraveling the Glucosylation of Astringency Compounds of Horse Chestnut via Integrative Sensory Evaluation, Flavonoid Metabolism, Differential Transcriptome, and Phylogenetic Analysis” (Frontiers in Plant Science, 2022)

Assays:
[1] = substrate: O=c1c(O)c(-c2ccc(O)cc2)oc2cc(O)cc(O)c12; assay: UPLC-MS/MS glucosyltransferase kinetics; type: biochemical, Aesculus chinensis; details: UDP-glucose 2 mM, pH 7.0 Tris-HCl, 10 mM DTT, 37 °C
[2] = substrate: O=c1c(O)c(-c2ccc(O)c(O)c2)oc2cc(O)cc(O)c12; assay: UPLC-MS/MS glucosyltransferase kinetics; type: biochemical, Aesculus chinensis; details: UDP-glucose 2 mM, pH 7.0 Tris-HCl, 10 mM DTT, 37 °C

Protein	Km [1]	Km [2]	kcat [2]
AcUGT1 (Aesculus chinensis) (protein, cloned from mixed leaf, flower and seed cDNA into pMAL-c2x (MBP-fusion vector), expressed in Escherichia coli) MQKAELVFIPLPGVSHLISTVEIAKLLVGRDDRLSITVLIIKFPNFDSNVIAAYTRSLDRIKFIDLPNHFSDSDNSRTLFFSIIESQKPHVKEAVTKLTQSESLPAADSPRLAGFVLDMFCTCMIDVANDFGVPSYIFFTSGAAFLGLMFHAQFLHDELGKSTTDFKDSESDAELVVPSLANPVPARVLPSAMLSKEWSMHLNELSRRFRTTKGIMVNTFAELESYAVNSLSDGSKTQIPPLYPVGPILNLNGDNHVPERKAEIMEWLDDQPPSSVVFLCFGSMGSFDGDQLKEIACALEQSGHRFLWSVRQSPPKDKDKDKIVIPNDCENLTDVLPEGFLDRTVGIGKVIGWAPQVAVLGHPAVGGFVSHCGWNSTLESIWFGVPIATWPIYAEQQLNAFEMVRELGLAVEIKMDYRKDFITESVVELVTAEEIERGIRRLMESDNNDIRKKVKEMSEKSRRALMDGGSSFSSLGRFIGDVIDNIS	22.62 µM	1.02 ± 0.23 µM	5.34±0.01(10^-3) S^-1
AcUGT26 (Aesculus chinensis) (protein, cloned from mixed leaf, flower and seed cDNA into pMAL-c2x (MBP-fusion vector), expressed in Escherichia coli) MSSSRSQSHHVILFPFMSKGHTIPLLHLAQLLLRRPRVAVTVFTTPANRPFTSNFLRNTAASIIDLPFPENVPEIAPGIESTDKLPSMSLFVPFARATKLMQPDFERAVEAMPRVSFLVSDGFLWWTLESATKFGFPRFVFYGMNNYSGCVCRAVVENRLLYGRKSDDELVTVTGFPWIKVTRNDFEPTFTDPEPKGPMFDLVIDQVIATSNSYGLIVNSFYELESLFVEHKNREAKPKVWCVGPLCLADPLRVQDQLPPHQKPTWIQWLDQKLEQGRSVLYVAFGTQAEISEEQVKEISSGLEESKVNFLWVIRKKESELGDGFEKRVKERGLIVREWVDQREMLLHQSIHGFLSHCGWNSVMESICAGVPILAWPMMAEQPLNARMVVEEIKVGLRVETCNGSVRGFVKKEGLEKMVKELMEGEKGKEVRKKAKEYAEMARKAMDEDNGSSCRTLDMLMAEISNSKSQDKMEV	–	2.23 ± 0.06 µM	0.65±0.02(10^-3) S^-1
